Measured values taken from publication PMC9257651.

Key:
[1] = biological target: ClpP1 co-expressed with ClpP2 in E. coli (L. monocytogenes); test: SEC
[2] = biological target: Full-length ClpP2 with a C-terminal Strep-tag II (tetradecamer, ClpP2_(14)) (L. monocytogenes); test: SEC + other: intact protein mass spectrometry
[3] = biological target: C-terminally myc-tagged ClpP2 (ClpP2-2×myc) (L. monocytogenes (endogenous gene in L. monocytogenes EGD-e)); test: affinity purification with mass spectrometry
[4] = biological target: ClpP2 co-expressed with ClpP1 in E. coli (L. monocytogenes); test: SEC

For “ClpP1 co-expressed with ClpP2 in E. coli (enzyme)”, which stoichiometry N [1] is on record?
Its stoichiometry N is 7.

Which percent ClpP1 in the tetradecamer peak (intact protein MS) [2] does the source give for “ClpP1 with a C-terminal Strep-tag II (heptamer, ClpP1_(7)) (enzyme)” here?
The percent ClpP1 in the tetradecamer peak (intact protein MS) was 47 to 49%.

Which fold enrichment at 42 °C against 20 °C [3] does the source give for “ClpP1, endogenous in L. monocytogenes (enzyme)” here?
The fold enrichment at 42 °C against 20 °C was 6 fold.

For “ClpP2 co-expressed with ClpP1 in E. coli (enzyme)”, which stoichiometry N [4] is on record?
Its stoichiometry N is 14.

How did the stoichiometry N [2] turn out when “Full-length ClpP2 with a C-terminal Strep-tag II (tetradecamer, ClpP2_(14)) (enzyme)” was run?
Its stoichiometry N is 14.
